Tested on: T1, CC(=O)N[C@H]1[C@H](Oc2ccc3c(C)cc(=O)oc3c2)O[C@H](CO)[C@@H](O[C@@H]2O[C@H](CO)[C@@H](O)[C@H](O)[C@H]2NC(C)=O)[C@@H]1O
T1 construct: single GH18 catalytic domain C1 (core 1613-1855 and 1940-1988, insertion domain 1856-1939); His-tag purified from Pichia pastoris GS115
Test: fluorescence of released 4-methylumbelliferone
Assay type: biochemical, Ostrinia furnacalis
Details: pH 6.0, 20 mM sodium phosphate, 303 K, 20 min, 30.0 °C
Excerpt: fluorescence of released 4-methylumbelliferone on OfChtII-C1

## OfChtII-C1 (Ostrinia furnacalis; A1877I/D1864N/D1876G/DEL1865-1874/G1863E/K1875R/N1878H)
  Km: 15.52 ± 0.98 µM
  kcat: 0.5498 ± 0.0108 s⁻¹
  kcat/Km: 35500 M⁻¹ s⁻¹

From paper PMC5827449, “Structural analysis of group II chitinase (ChtII) catalysis completes the puzzle of chitin hydrolysis in insects” (The Journal of Biological Chemistry, 2018)
